Source: the supplement of paper PMC10567573

B1: CDC25A (parent)
chain: KPIVPTDGKRVIVVFHCEFSSERG

Variants of: B1
Assay: protein stability index of a GFP-peptide fusion (GPS, HEK-293T) (PSI 1-6); higher = more stable
Details: c terminus: a fixed tail appended
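Also: lentivirally expressed fusions sorted by FACS into six bins by GFP to DsRed ratio, PSI derived from sequencing read proportions per bin multiplied by bin number.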

Protein stability index of substitutions, site by site:
V13: R 2.91 | W 1.79 | I 3.19 | L 2.97 | A 2.28 | K 3.02 | G 2.8 | T 2.38 | N 3.57 | F 2.33 | Q 3.24 | M 1.16 | S 3.36 | E 3.43 | D 3.69 | Y 2.31 | C 1.79 | H 2.08 | P 3.21
F19: L 2.32 | K 2.18 | Q 2.3 | E 2.47 | G 2.15 | C 1.98 | T 2.1 | S 2.27 | A 1.71 | V 2.19 | P 1.8 | D 2.41 | Y 1.89 | M 2.05 | I 1.65 | R 2.22 | W 1.86 | H 1.86 | N 2
T6: P 1.95 | Q 3.58 | E 1.82 | K 1.83 | R 2.27 | I 2.31 | H 2.71 | S 1.86 | D 1.8 | V 1.61 | C 2.64 | G 1.97 | W 3.34 | L 1.92 | F 2.46 | A 1.44 | Y 2.19 | N 2.28 | M 2.11
I12: R 1.94 | Q 2 | S 1.82 | W 2.49 | K 3.13 | A 2.11 | C 2.1 | H 1.83 | D 3.47 | E 2.84 | M 2.24 | T 2 | L 3.39 | G 3.13 | F 3.2 | V 1.63 | P 3.39 | N 2.99
D7: M 2.53 | T 3.31 | K 1.8 | F 2.17 | A 2.21 | R 2 | S 1.84 | N 2.48 | W 4.57 | E 2.8 | L 3.2 | H 3.21 | P 3.14 | Q 2.76 | V 2.3
V14: D 3.36 | S 2.52 | Q 2.24 | L 2.17 | P 3.44 | F 1.83 | G 2.69 | K 2.43 | E 2.67 | H 2.54 | M 1.9 | Y 2.6 | I 2.56 | R 2.09 | C 2.57 | A 1.92 | W 2.09 | T 1.72 | N 2.35
H16: D 2.06 | K 1.49 | N 1.87 | M 4.57 | L 3.13 | T 3.6 | Y 3.43 | I 2.85 | S 3.2 | G 1.76 | F 2.41 | V 2.32 | Q 1.83 | R 3.3 | C 2.31 | E 1.5 | A 1.79 | P 2.46
S21: H 2.27 | M 2.22 | L 3.4 | E 1.56 | V 2.61 | F 1.97 | N 2.46 | R 1.2 | A 2.27 | K 1.9 | P 4.03 | I 1.42 | T 3.26 | D 1.28 | C 3.38
V11: Y 2.59 | I 3.01 | E 3.05 | D 2.65 | A 1.93 | M 2.06 | L 2.82 | N 2.14 | W 3.24 | H 1.58 | G 2.21 | F 2.11 | Q 2.25 | K 2.51 | P 2.31 | C 1.57 | S 2.35 | T 1.76 | R 1.68
E22: C 2.52 | A 2.39 | D 2.61 | G 1.99 | F 3.5 | H 2.7
P5: L 2.4 | F 2.19 | E 2.33 | N 4.39 | S 2.29 | M 2.45 | Y 2.66 | T 1.55 | C 4.79 | Q 2.27 | R 1.84 | I 2.42 | G 1.69 | D 1.33 | H 1.5 | W 3.01 | K 2.13 | A 2.63 | V 2.29
R10: G 2.54 | I 1.45 | C 3.54 | Y 2.95 | E 2.96 | Q 2.14 | S 2.33 | V 2.76 | P 3.09 | T 2.54 | L 3.23 | N 2.39 | K 2.51 | F 2.43 | A 1.93 | M 2.6 | D 1.77 | W 4.02
V4: S 2.49 | Y 2.58 | K 2.11 | E 1.48 | N 3.39 | W 2.32 | L 2.33 | M 1.92 | D 2.51 | H 2.17 | R 3.53 | P 2.75 | G 2.33 | A 2.12 | Q 2.44 | C 2.14 | I 2.57 | F 2.24 | T 1.42
C17: Q 2.32 | A 2.24 | W 2.91 | I 2.68 | M 1.99 | H 1.38 | G 1.98 | Y 2.9 | L 2.12 | K 2.33 | F 1.93 | P 2.64 | T 1.86 | V 2.73 | E 2.57 | N 2.52 | D 2.77 | S 1.85 | R 1.95
I3: W 4.26
G8: V 5.1 | E 2.13 | P 1.52 | Q 1.51 | C 1.88 | L 3.42 | A 2.26 | D 1.33 | N 1.95 | T 2.3 | H 3.19 | M 3.53 | K 1.82 | Y 2.16 | W 2.51 | F 2.28 | R 2.3 | I 2.89
S20: V 1.7 | I 3.13 | K 2.76 | W 2.1 | P 1.92 | N 1.95 | T 2.79 | Q 1.71 | L 2.5 | F 3.29 | H 2.8 | C 2.23 | Y 2.42 | D 1.68 | G 2.51 | E 1.12 | M 2.43 | A 1.96 | R 3.53
K9: F 2.2 | C 2.67 | G 2.86 | V 2.77 | Q 3.32 | R 2.92 | W 2.4 | P 1.94 | E 2.58 | L 2.69 | H 2.19 | A 1.56 | S 2.4 | M 2.36 | T 2.66 | D 2.19 | N 2.31
F15: M 1.61 | C 1.68 | V 2.84 | D 4.34 | P 4.14 | Y 1.72 | R 3.06 | L 3.28 | I 2.73 | W 1.55 | H 3.19 | Q 3.78 | G 2.98 | A 2.47 | T 2.92 | K 3.79 | S 3.47 | E 4.32 | N 3.98
E18: P 2.31 | V 3.1 | L 1.76 | S 3.26 | A 2.51 | H 3.13 | W 2.46 | Q 3.42 | G 2.55 | N 2.34 | F 3.14 | Y 2.26 | M 2.38 | I 2.28 | K 4 | R 2.48 | C 2.17 | D 1.79
